Molecular target: T1, BSA (Bos taurus, UniProt P02769)
T1 construct: purchased Jackson ImmunoResearch (West Grove, Pa.)
Test: Circular dichroism of BSA grafted to PxSPCP NPs
Assay type: physicochemical, bovine
Conditions: PBS, 20° C.
Method: Bioactivity and Cell Compatibility of BMP2-PxSPCP NPs: Circular dichroism (CD) was used to determine the effect of grafting on secondary structure of the model BSA protein. CD spectra of free or grafted BSA in PBS were collected with a spectropolarimeter (JASCO J815, Essex, UK) at 20° C. with a cuvette of 0.1 cm path length. For evaluation of cell compatibility, hMSCs (1×10^6 cells/mL) and PxSPCP NPs (10 mg) were encapsulated in LPELA hydrogel and cultured in basal medium. At each time point, the hydrogels were stained with cAM/EthD live/dead assay (1 μg/mL) and the stained cells were imaged with an inverted fluorescent microscope (Nikon Eclipse Ti-ε, Nikon, Melville, N.Y.). To quantify cell viability, the medium was replaced with fresh medium containing 10% MTS and incubated for 6 hours at 37° C. and the sample absorbance was measured with a microplate reader (Molecular Devices, San Jose, Calif.) at a wavelength of 490 nm.

T1 sequence (P02769 25-607): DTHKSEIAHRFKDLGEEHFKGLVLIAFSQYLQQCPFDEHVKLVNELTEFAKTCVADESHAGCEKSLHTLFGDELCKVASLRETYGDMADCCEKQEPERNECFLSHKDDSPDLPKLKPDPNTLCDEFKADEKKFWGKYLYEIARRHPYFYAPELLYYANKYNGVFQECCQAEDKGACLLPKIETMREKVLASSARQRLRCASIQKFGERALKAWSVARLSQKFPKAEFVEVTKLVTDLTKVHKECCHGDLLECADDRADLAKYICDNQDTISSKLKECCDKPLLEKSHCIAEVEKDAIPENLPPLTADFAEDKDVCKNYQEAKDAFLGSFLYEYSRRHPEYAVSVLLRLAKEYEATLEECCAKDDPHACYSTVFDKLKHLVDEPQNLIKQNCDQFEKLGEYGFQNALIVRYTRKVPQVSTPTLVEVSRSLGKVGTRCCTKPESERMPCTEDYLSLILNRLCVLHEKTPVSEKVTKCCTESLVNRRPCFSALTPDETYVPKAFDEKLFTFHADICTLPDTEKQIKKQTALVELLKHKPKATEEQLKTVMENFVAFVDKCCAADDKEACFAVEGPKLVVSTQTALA

| Substance | CD spectrum of grafted BSA compared with free BSA |
| --- | --- |
| BSA-P0.5SPCP NPs: BSA grafted to P0.5SPCP NPs | close to that of free BSA |
| BSA-P2SPCP NPs: BSA grafted to P2SPCP NPs | slight change |
| BSA-P5SPCP: BSA grafted to P5SPCP NPs | substantially different |
| BSA-P7.5SPCP: BSA grafted to P7.5SPCP NPs | substantially different |

— patent US20230355541A1, “ENZYMATICALLY CLEAVABLE SELF-ASSEMBLED NANOPARTICLES FOR MORPHOGEN DELIVERY” (UNIVERSITY OF SOUTH CAROLINA, priority 2019, published 2023)
